Assays:
[1] = target: T1, recombinant human folate receptor alpha (rhFRα) (human, UniProt P15328 25-234); test: BIAcore (SPR), format not described
T1 construct: CHO: Ig kappa leader, C-terminal 6xHis replacing the GPI attachment site; also called FOLR1; FOLR-1

[2] = target: T2, recombinant purified FRα (ECL assay calibrator) (human, UniProt P15328 25-234); test: ECL sandwich, FRα calibrator; capture 6A2.G7; binder = detection Ab
T2 construct: Calibrator of the ECL sandwich assays; also called FRα calibrator; FRα standard
T2 sequence (P15328 25-234 limits assumed): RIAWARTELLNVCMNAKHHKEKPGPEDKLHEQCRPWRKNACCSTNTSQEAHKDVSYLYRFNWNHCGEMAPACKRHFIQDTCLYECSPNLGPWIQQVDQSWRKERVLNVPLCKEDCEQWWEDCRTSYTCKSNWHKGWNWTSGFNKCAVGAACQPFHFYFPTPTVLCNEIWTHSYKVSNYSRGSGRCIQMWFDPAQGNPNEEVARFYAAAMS

[3] = target: T2, recombinant purified FRα (ECL assay …); test: ECL sandwich, FRα calibrator; capture 19D2.G9; binder = detection Ab
[4] = target: T2, recombinant purified FRα (ECL assay …); test: ECL sandwich, FRα calibrator; capture 24H8.D3; binder = detection Ab
[5] = target: T2, recombinant purified FRα (ECL assay …); test: ECL sandwich, FRα calibrator; capture 24H8.F3; binder = detection Ab
[6] = target: T2, recombinant purified FRα (ECL assay …); test: ECL sandwich, FRα calibrator; capture 26A9.C4; binder = detection Ab
[7] = target: T2, recombinant purified FRα (ECL assay …); test: ECL sandwich, FRα calibrator; capture 2F11.F8; binder = detection Ab
[8] = target: T2, recombinant purified FRα (ECL assay …); test: ECL sandwich, FRα calibrator; capture 5C12.H8; binder = detection Ab
[9] = target: T2, recombinant purified FRα (ECL assay …); test: ECL sandwich, FRα calibrator; capture 19D4.B7; binder = detection Ab
[10] = target: T2, recombinant purified FRα (ECL assay …); test: ECL sandwich, FRα calibrator; capture 28H12.G9; binder = detection Ab
[11] = target: T2, recombinant purified FRα (ECL assay …); test: ECL sandwich, FRα calibrator; capture 1C6.E12.G8; binder = detection Ab
[12] = target: T2, recombinant purified FRα (ECL assay …); test: ECL sandwich, FRα calibrator; capture 1D2.G8.G10; binder = detection Ab
[13] = target: T2, recombinant purified FRα (ECL assay …); test: ECL sandwich, FRα calibrator; capture 1A8.G11.E7; binder = detection Ab
[14] = target: T3, human folate receptor beta (FRβ), recombinant, C-terminal 6xHis (human, UniProt P14207 17-230, limits assumed); test: direct ELISA, plates coated with 1 µg/mL FR isoform, dilution series of culture supernatant
T3 construct: Transiently expressed in 293F cells and purified; coated on ELISA plates
T3 sequence (P14207 other isoform, or with tags, fused parts or gaps limits assumed): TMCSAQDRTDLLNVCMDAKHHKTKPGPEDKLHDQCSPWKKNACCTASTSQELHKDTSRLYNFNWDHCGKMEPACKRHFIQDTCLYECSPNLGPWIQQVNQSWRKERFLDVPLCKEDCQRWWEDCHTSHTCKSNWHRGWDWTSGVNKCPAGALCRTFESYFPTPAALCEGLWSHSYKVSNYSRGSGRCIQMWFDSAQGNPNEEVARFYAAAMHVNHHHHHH

[15] = target: T4, human folate receptor gamma (FRγ), recombinant, C-terminal 6xHis (human, UniProt P41439 23-245, limits assumed); test: as above
T4 construct: Transiently expressed in 293F cells and purified; coated on ELISA plates
T4 sequence (P41439 other isoform, or with tags, fused parts or gaps limits assumed): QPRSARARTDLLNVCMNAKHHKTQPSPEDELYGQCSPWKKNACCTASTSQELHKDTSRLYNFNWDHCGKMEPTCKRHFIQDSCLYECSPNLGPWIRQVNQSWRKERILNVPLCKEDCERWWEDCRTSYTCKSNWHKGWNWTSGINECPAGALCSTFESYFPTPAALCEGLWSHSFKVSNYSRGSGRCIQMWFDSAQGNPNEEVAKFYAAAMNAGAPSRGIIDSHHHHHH

[16] = target: T2, recombinant purified FRα (ECL assay …); test: ECL sandwich, FRα calibrator; capture 30G6.G6.G4.E9; binder = detection Ab
[17] = target: T2, recombinant purified FRα (ECL assay …); test: ECL sandwich on FRα, signal to background; capture 6A2.G7; binder = detection Ab
[18] = target: T2, recombinant purified FRα (ECL assay …); test: ECL sandwich on FRα, signal to background; capture 19D2.G9; binder = detection Ab
[19] = target: T2, recombinant purified FRα (ECL assay …); test: ECL sandwich on FRα, signal to background; capture 24H8.D3; binder = detection Ab
[20] = target: T2, recombinant purified FRα (ECL assay …); test: ECL sandwich on FRα, signal to background; capture 24H8.F3; binder = detection Ab
[21] = target: T2, recombinant purified FRα (ECL assay …); test: ECL sandwich on FRα, signal to background; capture 26A9.C4; binder = detection Ab
[22] = target: T2, recombinant purified FRα (ECL assay …); test: ECL sandwich on FRα, signal to background; capture 2F11.F8; binder = detection Ab
[23] = target: T2, recombinant purified FRα (ECL assay …); test: ECL sandwich on FRα, signal to background; capture 5C12.H8; binder = detection Ab
[24] = target: T2, recombinant purified FRα (ECL assay …); test: ECL sandwich on FRα, signal to background; capture 19D4.B7; binder = detection Ab
[25] = target: T2, recombinant purified FRα (ECL assay …); test: ECL sandwich on FRα, signal to background; capture 28H12.G9; binder = detection Ab
[26] = target: T2, recombinant purified FRα (ECL assay …); test: ECL sandwich on FRα, signal to background; capture 1C6.E12.G8; binder = detection Ab
[27] = target: T2, recombinant purified FRα (ECL assay …); test: ECL sandwich on FRα, signal to background; capture 1D2.G8.G10; binder = detection Ab
[28] = target: T2, recombinant purified FRα (ECL assay …); test: ECL sandwich on FRα, signal to background; capture 1A8.G11.E7; binder = detection Ab
[29] = target: T2, recombinant purified FRα (ECL assay …); test: ECL sandwich on FRα, signal to background; capture 30G6.G6.G4.E9; binder = detection Ab

T1 sequence (P15328 25-234 limits assumed): as the sequence (P15328 25-234 limits assumed) above

B1: Monoclonal antibody 1C6.E12.G8 (antibody, mouse IgG1, V domains shown)
VH: SGARELVKPGASVKLSCKTSGFTFNSSYITWLKQKPGQSLEWIAWIYAGNGGTTYNQKFTGKAQLTVDTSSSTAYMQFSSLTTEDSAIYYCASETYTNYWYFDVWGSGTTVTVSS
VL: QSPASLSASVGETVTITCRASGNIHNYLAWYQQKQGKSPQLLVYNAKTLADGVPSRFSGSGSGTQYSLKINSLQPEDFGSYYCQHFWSTPYTFGGGTKLEIK
notes: Murine IgG1 kappa from hybridoma; also called ATCC PTA-123091
- Kd [1]: 9.76 nM
- Specific signal at 500 pg/mL [2]: 967
- Specific signal at 500 pg/mL [3]: 80
- Specific signal at 500 pg/mL [4]: 74
- Specific signal at 500 pg/mL [5]: 75
- Specific signal at 500 pg/mL [6]: 73
- Specific signal at 500 pg/mL [7]: 67
- Specific signal at 500 pg/mL [8]: 70
- Specific signal at 500 pg/mL [9]: 37500
- Specific signal at 500 pg/mL [10]: 92
- Specific signal at 500 pg/mL [11]: 86
- Specific signal at 500 pg/mL [12]: 53
- Specific signal at 500 pg/mL [13]: 54
- binding result [14]: no binding
- binding result [15]: no binding
- Specific signal at 500 pg/mL [16]: 10900
- Average of S/B [17]: 19
- Average of S/B [18]: 1
- Average of S/B [19]: 1
- Average of S/B [20]: 1
- Average of S/B [21]: 1
- Average of S/B [22]: 1
- Average of S/B [23]: 1
- Average of S/B [24]: 449
- Average of S/B [25]: 1
- Average of S/B [26]: 1
- Average of S/B [27]: 1
- Average of S/B [28]: 1
- Average of S/B [29]: 144

B2: Monoclonal antibody 5C12.H8 (antibody, mouse IgG2b, V domains shown)
VH: GPGLVKPSQSLSLTCSVTGYSITSGYYWIWIRQFPGNKLEWMGYISYDGSNNYNPSLKNRISITRDTSKNQFFLKLNSVTTEDTATYYCARGNYYAMDYWGQGTSVTVSS
VL: not shown
notes: Murine IgG2b kappa from hybridoma; also called ATCC PTA-123095
- Kd [1]: 10.8 nM
- Specific signal at 500 pg/mL [2]: 596
- Specific signal at 500 pg/mL [3]: 77
- Specific signal at 500 pg/mL [4]: 71
- Specific signal at 500 pg/mL [5]: 60
- Specific signal at 500 pg/mL [6]: 78
- Specific signal at 500 pg/mL [7]: 123
- Specific signal at 500 pg/mL [8]: 100
- Specific signal at 500 pg/mL [9]: 18400
- Specific signal at 500 pg/mL [10]: 68
- Specific signal at 500 pg/mL [11]: 58
- Specific signal at 500 pg/mL [12]: 57
- Specific signal at 500 pg/mL [13]: 66
- binding result [14]: no binding
- binding result [15]: no binding
- Specific signal at 500 pg/mL [16]: 5290
- Average of S/B [17]: 9
- Average of S/B [18]: 1
- Average of S/B [19]: 1
- Average of S/B [20]: 1
- Average of S/B [21]: 1
- Average of S/B [22]: 1
- Average of S/B [23]: 1
- Average of S/B [24]: 253
- Average of S/B [25]: 1
- Average of S/B [26]: 1
- Average of S/B [27]: 1
- Average of S/B [28]: 1
- Average of S/B [29]: 61

B3: Monoclonal antibody 6A2.G7 (antibody, mouse IgG1, V domains shown)
VH: GADLVKPGASVKMSCKASGYTFSRYNMHWVKQTPGQGLEWIGTIYPGNGDTSYNEKFKGKATLTADKSSSIVYMQVSSLTSEASAVYYCARDYGSRYALDYWGQGTSVTVSS
VL: SSLSASLGDRVTISCRASQDISNYLNWYQQKPDGTVKLLIYYTSRLHSGVPSRFSGSGSGTDYSLTISNLEQEDIATYFCQQGNTLPYTFGGGTKLEIK
notes: Murine IgG1 kappa from hybridoma; also called ATCC PTA-123093
- Kd [1]: 15 nM
- Specific signal at 500 pg/mL [2]: 92
- Specific signal at 500 pg/mL [3]: 11700
- Specific signal at 500 pg/mL [4]: 6620
- Specific signal at 500 pg/mL [5]: 3890
- Specific signal at 500 pg/mL [6]: 347
- Specific signal at 500 pg/mL [7]: 283
- Specific signal at 500 pg/mL [8]: 100
- Specific signal at 500 pg/mL [9]: 10800
- Specific signal at 500 pg/mL [10]: 432
- Specific signal at 500 pg/mL [11]: 217
- Specific signal at 500 pg/mL [12]: 347
- Specific signal at 500 pg/mL [13]: 6000
- binding result [14]: no binding
- binding result [15]: no binding
- Specific signal at 500 pg/mL [16]: 2410
- Average of S/B [17]: 1
- Average of S/B [18]: 205
- Average of S/B [19]: 109
- Average of S/B [20]: 63
- Average of S/B [21]: 4
- Average of S/B [22]: 5
- Average of S/B [23]: 1
- Average of S/B [24]: 145
- Average of S/B [25]: 7
- Average of S/B [26]: 3
- Average of S/B [27]: 5
- Average of S/B [28]: 89
- Average of S/B [29]: 31
